The values below come from IntAct's records for PubMed 19850040.

B1: Post-transcriptional regulator MTA (Human herpesvirus 8), Q2HR75 (parent)
chain: MVQAMIDMDIMKGILEDSVSSSEFDESRDDETDAPTLEDEQLSEPAEPPADERIRGTQSAQGIPPPLGRIPKKSQGRSQLRSEIQFCSPLSRPRSPSPVNRYGKKIKFGTAGQNTRPPPEKRPRRRPRDRLQYGRTTRGGQCRAAPKRATRRPQVNCQRQDDDVRQGVSDAVKKLRLPASMIIDGESPRFDDSIIPRHHGACFNVFIPAPPSHVPEVFTDRDITALIRAGGKDDELINKKISAKKIDHLHRQMLSFVTSRHNQAYWVSCRRETAAAGGLQTLGAFVEEQMTWAQTVVRHGGWFDEKDIDIILDTAIFVCNAFVTRFRLLHLSCVFDKQSELALIKQVAYLVAMGNRLVEACNLLGEVKLNFRGGLLLAFVLTIPGMQSRRSISARGQELFRTLLEYYRPGDVMGLLNVIVMEHHSLCRNSECAAATRAAMGSAKFNKGLFFYPLS

The variants in one assay derive from B1. The note with it: with thoc4_human ALYREF.
As to MVQAMIDMDIMKGILEDSVSSSEFDESRDDETDAPTLEDEQLSEPAEPPADERIRGTQSAQGIPPPLGRIPKKSQGRSQLRSEIQFCSPLSRPRSPSPVNRYGKKIKFGTAGQNTRPPPEKRPQRRPRDRLQYGRTTRGGQCRAAPKRATRRPQVNCQRQDDDVRQGVSDAVKKLRLPASMIIDGESPRFDDSIIPRHHGACFNVFIPAPPSHVPEVFTDRDITALIRAGGKDDELINKKISAKKIDHLHRQMLSFVTSRHNQAYWVSCRRETAAAGGLQTLGAFVEEQMTWAQTVVRHGGWFDEKDIDIILDTAIFVCNAFVTRFRLLHLSCVFDKQSELALIKQVAYLVAMGNRLVEACNLLGEVKLNFRGGLLLAFVLTIPGMQSRRSISARGQELFRTLLEYYRPGDVMGLLNVIVMEHHSLCRNSECAAATRAAMGSAKFNKGLFFYPLS [R124Q], the “effect of a mutation on the interaction” value was “disrupting interaction”.

Turning to MVQAMIDMDIMKGILEDSVSSSEFDESRDDETDAPTLEDEQLSEPAEPPADERIRGTQSAQGIPPPLGRIPKKSQGRSQLRSEIQFCSPLSRPRSPSPVNRYGKKIKFGTAGQNTRPPPEKRPRRRPSDRLQYGRTTRGGQCRAAPKRATRRPQVNCQRQDDDVRQGVSDAVKKLRLPASMIIDGESPRFDDSIIPRHHGACFNVFIPAPPSHVPEVFTDRDITALIRAGGKDDELINKKISAKKIDHLHRQMLSFVTSRHNQAYWVSCRRETAAAGGLQTLGAFVEEQMTWAQTVVRHGGWFDEKDIDIILDTAIFVCNAFVTRFRLLHLSCVFDKQSELALIKQVAYLVAMGNRLVEACNLLGEVKLNFRGGLLLAFVLTIPGMQSRRSISARGQELFRTLLEYYRPGDVMGLLNVIVMEHHSLCRNSECAAATRAAMGSAKFNKGLFFYPLS [R128S], the “effect of a mutation on the interaction” value is listed as “disrupting interaction”.

Turning to MVQAMIDMDIMKGILEDSVSSSEFDESRDDETDAPTLEDEQLSEPAEPPADERIRGTQSAQGIPPPLGRIPKKSQGRSQLRSEIQFCSPLSRPRSPSPVNRYGKKIKFGTAGQNTRPPPEKRPRRRPRDRLQYGRTTRGGQCRAAPERATRRPQVNCQRQDDDVRQGVSDAVKKLRLPASMIIDGESPRFDDSIIPRHHGACFNVFIPAPPSHVPEVFTDRDITALIRAGGKDDELINKKISAKKIDHLHRQMLSFVTSRHNQAYWVSCRRETAAAGGLQTLGAFVEEQMTWAQTVVRHGGWFDEKDIDIILDTAIFVCNAFVTRFRLLHLSCVFDKQSELALIKQVAYLVAMGNRLVEACNLLGEVKLNFRGGLLLAFVLTIPGMQSRRSISARGQELFRTLLEYYRPGDVMGLLNVIVMEHHSLCRNSECAAATRAAMGSAKFNKGLFFYPLS [K147E], the “effect of a mutation on the interaction” value is “disrupting interaction”.

Take MVQAMIDMDIMKGILEDSVSSSEFDESRDDETDAPTLEDEQLSEPAEPPADERIRGTQSAQGIPPPLGRIPKKSQGRSQLRSEIQFCSPLSRPRSPSPVNRYGKKIKFGTAGQNTRPPPEKRPRRRPRDGLQYGRTTRGGQCRAAPKRATRRPQVNCQRQDDDVRQGVSDAVKKLRLPASMIIDGESPRFDDSIIPRHHGACFNVFIPAPPSHVPEVFTDRDITALIRAGGKDDELINKKISAKKIDHLHRQMLSFVTSRHNQAYWVSCRRETAAAGGLQTLGAFVEEQMTWAQTVVRHGGWFDEKDIDIILDTAIFVCNAFVTRFRLLHLSCVFDKQSELALIKQVAYLVAMGNRLVEACNLLGEVKLNFRGGLLLAFVLTIPGMQSRRSISARGQELFRTLLEYYRPGDVMGLLNVIVMEHHSLCRNSECAAATRAAMGSAKFNKGLFFYPLS [R130G]: the “effect of a mutation on the interaction” value is recorded as “disrupting interaction”.

As to MVQAMIDMDIMKGILEDSVSSSEFDESRDDETDAPTLEDEQLSEPAEPPADERIRGTQSAQGIPPPLGRIPKKSQGRSQLRSEIQFCSPLSRPRSPSPVNRYGKKIKFGTAGQNTRPPPEKRPRGRPRDRLQYGRTTRGGQCRAAPKRATRRPQVNCQRQDDDVRQGVSDAVKKLRLPASMIIDGESPRFDDSIIPRHHGACFNVFIPAPPSHVPEVFTDRDITALIRAGGKDDELINKKISAKKIDHLHRQMLSFVTSRHNQAYWVSCRRETAAAGGLQTLGAFVEEQMTWAQTVVRHGGWFDEKDIDIILDTAIFVCNAFVTRFRLLHLSCVFDKQSELALIKQVAYLVAMGNRLVEACNLLGEVKLNFRGGLLLAFVLTIPGMQSRRSISARGQELFRTLLEYYRPGDVMGLLNVIVMEHHSLCRNSECAAATRAAMGSAKFNKGLFFYPLS [R125G], the “effect of a mutation on the interaction” value is “disrupting interaction”.

In the case of MVQAMIDMDIMKGILEDSVSSSEFDESRDDETDAPTLEDEQLSEPAEPPADERIRGTQSAQGIPPPLGRIPKKSQGRSQLRSEIQFCSPLSRPRSPSPVNRYGKKIKFGTAGQNTRPPPEKRPRRRPRDRLQYGRTTRGGQCRAAPKQATRRPQVNCQRQDDDVRQGVSDAVKKLRLPASMIIDGESPRFDDSIIPRHHGACFNVFIPAPPSHVPEVFTDRDITALIRAGGKDDELINKKISAKKIDHLHRQMLSFVTSRHNQAYWVSCRRETAAAGGLQTLGAFVEEQMTWAQTVVRHGGWFDEKDIDIILDTAIFVCNAFVTRFRLLHLSCVFDKQSELALIKQVAYLVAMGNRLVEACNLLGEVKLNFRGGLLLAFVLTIPGMQSRRSISARGQELFRTLLEYYRPGDVMGLLNVIVMEHHSLCRNSECAAATRAAMGSAKFNKGLFFYPLS [R148Q], the “effect of a mutation on the interaction” value is “disrupting interaction”.

With MVQAMIDMDIMKGILEDSVSSSEFDESRDDETDAPTLEDEQLSEPAEPPADERIRGTQSAQGIPPPLGRIPKKSQGRSQLRSEIQFCSPLSRPRSPSPVNRYGKKIKFGTAGQNTRPPPEKRPRRRPRDRLQYGRTTRGGQCDAAPKRATRRPQVNCQRQDDDVRQGVSDAVKKLRLPASMIIDGESPRFDDSIIPRHHGACFNVFIPAPPSHVPEVFTDRDITALIRAGGKDDELINKKISAKKIDHLHRQMLSFVTSRHNQAYWVSCRRETAAAGGLQTLGAFVEEQMTWAQTVVRHGGWFDEKDIDIILDTAIFVCNAFVTRFRLLHLSCVFDKQSELALIKQVAYLVAMGNRLVEACNLLGEVKLNFRGGLLLAFVLTIPGMQSRRSISARGQELFRTLLEYYRPGDVMGLLNVIVMEHHSLCRNSECAAATRAAMGSAKFNKGLFFYPLS [R143D], the “effect of a mutation on the interaction” value was “disrupting interaction”.

Take MVQAMIDMDIMKGILEDSVSSSEFDESRDDETDAPTLEDEQLSEPAEPPADERIRGTQSAQGIPPPLGRIPKKSQGRSQLRSEIQFCSPLSRPRSPSPVNRYGKKIKFGTAGQNTRPPPEKSPRRRPRDRLQYGRTTRGGQCRAAPKRATRRPQVNCQRQDDDVRQGVSDAVKKLRLPASMIIDGESPRFDDSIIPRHHGACFNVFIPAPPSHVPEVFTDRDITALIRAGGKDDELINKKISAKKIDHLHRQMLSFVTSRHNQAYWVSCRRETAAAGGLQTLGAFVEEQMTWAQTVVRHGGWFDEKDIDIILDTAIFVCNAFVTRFRLLHLSCVFDKQSELALIKQVAYLVAMGNRLVEACNLLGEVKLNFRGGLLLAFVLTIPGMQSRRSISARGQELFRTLLEYYRPGDVMGLLNVIVMEHHSLCRNSECAAATRAAMGSAKFNKGLFFYPLS [R122S]: the “effect of a mutation on the interaction” value is given as “disrupting interaction”.

As for MVQAMIDMDIMKGILEDSVSSSEFDESRDDETDAPTLEDEQLSEPAEPPADERIRGTQSAQGIPPPLGRIPKKSQGRSQLRSEIQFCSPLSRPRSPSPVNRYGKKIKFGTAGQNTRPPPEKRPRRRPRDRLQYGRTTRGGQCRAAPKRATRGPQVNCQRQDDDVRQGVSDAVKKLRLPASMIIDGESPRFDDSIIPRHHGACFNVFIPAPPSHVPEVFTDRDITALIRAGGKDDELINKKISAKKIDHLHRQMLSFVTSRHNQAYWVSCRRETAAAGGLQTLGAFVEEQMTWAQTVVRHGGWFDEKDIDIILDTAIFVCNAFVTRFRLLHLSCVFDKQSELALIKQVAYLVAMGNRLVEACNLLGEVKLNFRGGLLLAFVLTIPGMQSRRSISARGQELFRTLLEYYRPGDVMGLLNVIVMEHHSLCRNSECAAATRAAMGSAKFNKGLFFYPLS [R152G], the “effect of a mutation on the interaction” value is “disrupting interaction”.

As to MVQAMIDMDIMKGILEDSVSSSEFDESRDDETDAPTLEDEQLSEPAEPPADERIRGTQSAQGIPPPLGRIPKKSQGRSQLRSEIQFCSPLSRPRSPSPVNRYGKKIKFGTAGQNTRPPPEMRPRRRPRDRLQYGRTTRGGQCRAAPKRATRRPQVNCQRQDDDVRQGVSDAVKKLRLPASMIIDGESPRFDDSIIPRHHGACFNVFIPAPPSHVPEVFTDRDITALIRAGGKDDELINKKISAKKIDHLHRQMLSFVTSRHNQAYWVSCRRETAAAGGLQTLGAFVEEQMTWAQTVVRHGGWFDEKDIDIILDTAIFVCNAFVTRFRLLHLSCVFDKQSELALIKQVAYLVAMGNRLVEACNLLGEVKLNFRGGLLLAFVLTIPGMQSRRSISARGQELFRTLLEYYRPGDVMGLLNVIVMEHHSLCRNSECAAATRAAMGSAKFNKGLFFYPLS [K121M], the “effect of a mutation on the interaction” value was “disrupting interaction”.

As to MVQAMIDMDIMKGILEDSVSSSEFDESRDDETDAPTLEDEQLSEPAEPPADERIRGTQSAQGIPPPLGRIPKKSQGRSQLRSEIQFCSPLSRPRSPSPVNRYGKKIKFGTAGQNTRPPPEKRPRREPRDRLQYGRTTRGGQCRAAPKRATRRPQVNCQRQDDDVRQGVSDAVKKLRLPASMIIDGESPRFDDSIIPRHHGACFNVFIPAPPSHVPEVFTDRDITALIRAGGKDDELINKKISAKKIDHLHRQMLSFVTSRHNQAYWVSCRRETAAAGGLQTLGAFVEEQMTWAQTVVRHGGWFDEKDIDIILDTAIFVCNAFVTRFRLLHLSCVFDKQSELALIKQVAYLVAMGNRLVEACNLLGEVKLNFRGGLLLAFVLTIPGMQSRRSISARGQELFRTLLEYYRPGDVMGLLNVIVMEHHSLCRNSECAAATRAAMGSAKFNKGLFFYPLS [R126E], the “effect of a mutation on the interaction” value is “disrupting interaction”.

For MVQAMIDMDIMKGILEDSVSSSEFDESRDDETDAPTLEDEQLSEPAEPPADERIRGTQSAQGIPPPLGRIPKKSQGRSQLRSEIQFCSPLSRPRSPSPVNRYGKKIKFGTAGQNTRPPPEKRPRRRPRDRLQYGRTTRGGQCRAAPKRATDRPQVNCQRQDDDVRQGVSDAVKKLRLPASMIIDGESPRFDDSIIPRHHGACFNVFIPAPPSHVPEVFTDRDITALIRAGGKDDELINKKISAKKIDHLHRQMLSFVTSRHNQAYWVSCRRETAAAGGLQTLGAFVEEQMTWAQTVVRHGGWFDEKDIDIILDTAIFVCNAFVTRFRLLHLSCVFDKQSELALIKQVAYLVAMGNRLVEACNLLGEVKLNFRGGLLLAFVLTIPGMQSRRSISARGQELFRTLLEYYRPGDVMGLLNVIVMEHHSLCRNSECAAATRAAMGSAKFNKGLFFYPLS [R151D], the “effect of a mutation on the interaction” value is on record as “disrupting interaction”.

Variants of B1 are the subject of the next assay. To be noted: with thoc4_human ALYREF. This is another data set of the same source.
For the variant MVQAMIDMDIMKGILEDSVSSSEFDESRDDETDAPTLEDEQLSEPAEPPADERIRGTQSAQGIPPPLGRIPKKSQGRSQLRSEIQFCSPLSRPRSPSPVNSYGKKIKFGTAGQNTRPPPEKRPRRRPRDRLQYGRTTRGGQCRAAPKRATRRPQVNCQRQDDDVRQGVSDAVKKLRLPASMIIDGESPRFDDSIIPRHHGACFNVFIPAPPSHVPEVFTDRDITALIRAGGKDDELINKKISAKKIDHLHRQMLSFVTSRHNQAYWVSCRRETAAAGGLQTLGAFVEEQMTWAQTVVRHGGWFDEKDIDIILDTAIFVCNAFVTRFRLLHLSCVFDKQSELALIKQVAYLVAMGNRLVEACNLLGEVKLNFRGGLLLAFVLTIPGMQSRRSISARGQELFRTLLEYYRPGDVMGLLNVIVMEHHSLCRNSECAAATRAAMGSAKFNKGLFFYPLS [R101S], the “effect of a mutation on the interaction” value is reported as “disrupting interaction”.
